Assay results taken from PMC4434323.

Columns and labels:
[1] = molecular target: sptf-3 (Y40B1A.4) (Caenorhabditis elegans) (UniProt Q9XW26)
[2] = molecular target: T1, let-381 (F26B1.7) (Caenorhabditis elegans) (UniProt P91278)
T1 sequence: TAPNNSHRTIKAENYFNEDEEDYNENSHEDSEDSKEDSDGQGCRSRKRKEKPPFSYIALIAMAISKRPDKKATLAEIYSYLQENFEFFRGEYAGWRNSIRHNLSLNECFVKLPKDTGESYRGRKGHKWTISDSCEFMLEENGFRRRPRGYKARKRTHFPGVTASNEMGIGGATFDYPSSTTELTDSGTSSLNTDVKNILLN

[3] = test system: T2, slr-2 (Y59A8B.13) (Caenorhabditis elegans)
T2 sequence: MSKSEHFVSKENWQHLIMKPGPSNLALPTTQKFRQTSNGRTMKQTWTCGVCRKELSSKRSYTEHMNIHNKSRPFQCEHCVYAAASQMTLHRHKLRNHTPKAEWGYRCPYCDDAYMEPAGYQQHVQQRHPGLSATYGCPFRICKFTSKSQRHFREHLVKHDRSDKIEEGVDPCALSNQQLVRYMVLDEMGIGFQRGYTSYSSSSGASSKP

[4] = molecular target: klf-3 (F54H5.4) (Caenorhabditis elegans) (UniProt Q65ZG6)
Sequence of klf-3 (F54H5.4) (Caenorhabditis elegans) (Q65ZG6 180-315): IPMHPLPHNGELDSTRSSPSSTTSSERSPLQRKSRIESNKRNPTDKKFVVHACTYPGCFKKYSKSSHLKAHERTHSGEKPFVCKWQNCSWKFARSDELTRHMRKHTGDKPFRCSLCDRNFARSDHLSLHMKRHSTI

[5] = molecular target: egrh-1 (C27C12.2) (Caenorhabditis elegans) (UniProt Q18250)
Sequence of egrh-1 (C27C12.2) (Caenorhabditis elegans) (Q18250 324-461): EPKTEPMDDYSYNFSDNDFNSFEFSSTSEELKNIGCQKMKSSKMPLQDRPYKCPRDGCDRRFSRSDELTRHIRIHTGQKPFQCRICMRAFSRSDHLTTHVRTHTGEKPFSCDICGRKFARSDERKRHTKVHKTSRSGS

[6] = molecular target: T3, ZK337.2 (ZK337.2) (Caenorhabditis elegans) (UniProt O46016)
T3 sequence: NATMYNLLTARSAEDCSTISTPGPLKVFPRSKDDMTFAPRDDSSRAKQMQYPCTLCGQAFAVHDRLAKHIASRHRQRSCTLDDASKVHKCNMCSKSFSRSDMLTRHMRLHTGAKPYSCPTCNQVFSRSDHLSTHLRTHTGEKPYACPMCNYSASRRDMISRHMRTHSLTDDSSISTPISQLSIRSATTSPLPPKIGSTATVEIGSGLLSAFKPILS

[7] = molecular target: T4, nhr-66 (T09A12.4) (Caenorhabditis elegans) (UniProt H2KYJ8)
T4 sequence: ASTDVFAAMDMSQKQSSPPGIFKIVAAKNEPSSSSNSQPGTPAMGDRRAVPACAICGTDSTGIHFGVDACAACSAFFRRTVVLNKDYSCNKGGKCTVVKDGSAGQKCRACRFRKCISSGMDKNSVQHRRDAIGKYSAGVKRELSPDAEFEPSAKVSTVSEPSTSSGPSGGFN

[8] = molecular target: T5, odr-7 (T18D3.2) (Caenorhabditis elegans) (UniProt P41933)
T5 sequence: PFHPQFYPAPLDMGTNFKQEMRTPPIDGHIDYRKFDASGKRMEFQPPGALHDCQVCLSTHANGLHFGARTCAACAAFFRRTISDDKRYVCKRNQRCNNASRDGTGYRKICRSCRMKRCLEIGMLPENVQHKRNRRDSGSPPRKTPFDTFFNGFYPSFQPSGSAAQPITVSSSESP

[9] = molecular target: T6, nhr-70 (Y51A2D.17) (Caenorhabditis elegans) (UniProt G5EEL3)
T6 sequence: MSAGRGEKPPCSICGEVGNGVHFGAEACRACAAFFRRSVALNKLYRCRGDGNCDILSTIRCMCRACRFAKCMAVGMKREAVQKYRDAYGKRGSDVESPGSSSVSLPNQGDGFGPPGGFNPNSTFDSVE

[10] = molecular target: T7, ceh-26 (K12H4.1) (Caenorhabditis elegans) (UniProt P34522)
T7 sequence: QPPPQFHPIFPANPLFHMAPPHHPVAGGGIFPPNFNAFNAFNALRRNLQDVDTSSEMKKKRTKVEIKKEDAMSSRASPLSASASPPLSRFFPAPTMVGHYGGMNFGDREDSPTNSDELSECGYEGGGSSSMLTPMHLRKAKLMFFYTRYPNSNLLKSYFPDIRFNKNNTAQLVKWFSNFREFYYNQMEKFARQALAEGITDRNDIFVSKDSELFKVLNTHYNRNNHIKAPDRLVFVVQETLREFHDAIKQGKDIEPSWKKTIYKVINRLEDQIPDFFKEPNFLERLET

[11] = molecular target: ZC328.2 (ZC328.2) (Caenorhabditis elegans) (UniProt O02050)
Sequence of ZC328.2 (ZC328.2) (Caenorhabditis elegans) (O02050 entry or part of it): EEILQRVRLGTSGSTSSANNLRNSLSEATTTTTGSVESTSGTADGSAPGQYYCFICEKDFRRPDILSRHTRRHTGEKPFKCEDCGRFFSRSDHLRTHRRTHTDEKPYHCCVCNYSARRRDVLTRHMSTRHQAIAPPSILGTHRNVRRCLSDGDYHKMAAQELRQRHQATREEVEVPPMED

[12] = molecular target: T8, nhr-5 (Y73F8A.21) (Caenorhabditis elegans) (UniProt Q9NA51)
T8 sequence: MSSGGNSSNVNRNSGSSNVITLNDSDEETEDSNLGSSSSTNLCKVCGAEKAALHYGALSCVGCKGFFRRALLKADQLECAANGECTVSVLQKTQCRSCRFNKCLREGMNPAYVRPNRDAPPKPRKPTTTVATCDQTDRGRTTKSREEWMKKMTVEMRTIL

[13] = molecular target: T9, daf-12 (F11A1.3) (Caenorhabditis elegans) (UniProt G5EFF5)
T9 sequence: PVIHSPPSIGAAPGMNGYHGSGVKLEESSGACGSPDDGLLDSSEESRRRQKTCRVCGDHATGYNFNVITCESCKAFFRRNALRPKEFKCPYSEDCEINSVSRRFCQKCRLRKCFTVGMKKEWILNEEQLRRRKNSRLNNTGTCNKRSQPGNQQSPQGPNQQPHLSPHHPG

[14] = molecular target: T10, fkh-9 (K03C7.2) (Caenorhabditis elegans) (UniProt Q21187)
T10 sequence: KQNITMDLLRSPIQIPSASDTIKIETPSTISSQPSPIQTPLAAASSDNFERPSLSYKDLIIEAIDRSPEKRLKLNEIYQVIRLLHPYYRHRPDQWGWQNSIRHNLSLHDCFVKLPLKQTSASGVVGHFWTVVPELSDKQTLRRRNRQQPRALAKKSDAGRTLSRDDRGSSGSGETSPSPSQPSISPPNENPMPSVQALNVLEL

Sequence of sptf-3 (Y40B1A.4) (Caenorhabditis elegans) (Q9XW26 266-412): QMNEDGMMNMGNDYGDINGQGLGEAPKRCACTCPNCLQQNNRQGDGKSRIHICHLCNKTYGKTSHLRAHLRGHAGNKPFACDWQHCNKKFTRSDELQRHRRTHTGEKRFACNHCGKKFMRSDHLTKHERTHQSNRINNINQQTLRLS

GGGGCGTA (double strand) [8-mer GGGGCGTA]
binding signal (PBM E-score (-0.5 to 0.5)) [1]: 0.462

ATAAACAT (double strand) [8-mer ATAAACAT]
binding signal (PBM E-score (-0.5 to 0.5)) [2]: 0.473

ACTGCAAA (double strand) [8-mer ACTGCAAA]
binding signal (PBM E-score (-0.5 to 0.5)) [3]: 0.487

GGGGCGGA (double strand) [8-mer GGGGCGGA]
binding signal (PBM E-score (-0.5 to 0.5)) [1]: 0.475

ACGCCCAC (double strand) [8-mer ACGCCCAC]
binding signal (PBM E-score (-0.5 to 0.5)) [1]: 0.454
binding signal (PBM E-score (-0.5 to 0.5)) [4]: 0.48
binding signal (PBM E-score (-0.5 to 0.5)) [5]: 0.494
binding signal (PBM E-score (-0.5 to 0.5)) [6]: 0.492

GACTACAA (double strand) [8-mer GACTACAA]
binding signal (PBM E-score (-0.5 to 0.5)) [7]: 0.488
binding signal (PBM E-score (-0.5 to 0.5)) [8]: 0.476
binding signal (PBM E-score (-0.5 to 0.5)) [3]: 0.468
binding signal (PBM E-score (-0.5 to 0.5)) [9]: 0.495

CCAAGAAA (double strand) [8-mer CCAAGAAA]
binding signal (PBM E-score (-0.5 to 0.5)) [10]: 0.472

ACGCCCCC (double strand) [8-mer ACGCCCCC]
binding signal (PBM E-score (-0.5 to 0.5)) [1]: 0.49
binding signal (PBM E-score (-0.5 to 0.5)) [5]: 0.495
binding signal (PBM E-score (-0.5 to 0.5)) [6]: 0.495
binding signal (PBM E-score (-0.5 to 0.5)) [11]: 0.486

AAAGTACG (double strand) [8-mer AAAGTACG]
binding signal (PBM E-score (-0.5 to 0.5)) [12]: 0.462

ATGGGCGG (double strand) [8-mer ATGGGCGG]
binding signal (PBM E-score (-0.5 to 0.5)) [1]: 0.456

AAGTGCAC (double strand) [8-mer AAGTGCAC]
binding signal (PBM E-score (-0.5 to 0.5)) [13]: 0.498
binding signal (PBM E-score (-0.5 to 0.5)) [12]: 0.453

AACTGCAA (double strand) [8-mer AACTGCAA]
binding signal (PBM E-score (-0.5 to 0.5)) [3]: 0.495

AGTAAACA (double strand) [8-mer AGTAAACA]
binding signal (PBM E-score (-0.5 to 0.5)) [14]: 0.485
binding signal (PBM E-score (-0.5 to 0.5)) [2]: 0.457

AAGAAAGT (double strand) [8-mer AAGAAAGT]
binding signal (PBM E-score (-0.5 to 0.5)) [10]: 0.456

ATAGTACA (double strand) [8-mer ATAGTACA]
binding signal (PBM E-score (-0.5 to 0.5)) [12]: 0.452

ACGCCCCT (double strand) [8-mer ACGCCCCT]
binding signal (PBM E-score (-0.5 to 0.5)) [1]: 0.452

CAAGAAAA (double strand) [8-mer CAAGAAAA]
binding signal (PBM E-score (-0.5 to 0.5)) [10]: 0.469

AAGTACAC (double strand) [8-mer AAGTACAC]
binding signal (PBM E-score (-0.5 to 0.5)) [13]: 0.492
binding signal (PBM E-score (-0.5 to 0.5)) [12]: 0.457

AACTACAA (double strand) [8-mer AACTACAA]
binding signal (PBM E-score (-0.5 to 0.5)) [7]: 0.489
binding signal (PBM E-score (-0.5 to 0.5)) [3]: 0.492
binding signal (PBM E-score (-0.5 to 0.5)) [9]: 0.487

GAGTACAC (double strand) [8-mer GAGTACAC]
binding signal (PBM E-score (-0.5 to 0.5)) [12]: 0.461

CCGCCCAC (double strand) [8-mer CCGCCCAC]
binding signal (PBM E-score (-0.5 to 0.5)) [1]: 0.489
binding signal (PBM E-score (-0.5 to 0.5)) [5]: 0.494
binding signal (PBM E-score (-0.5 to 0.5)) [6]: 0.494
binding signal (PBM E-score (-0.5 to 0.5)) [11]: 0.489

AAAGTTCA (double strand) [8-mer AAAGTTCA]
binding signal (PBM E-score (-0.5 to 0.5)) [12]: 0.46

AAGATCTT (double strand) [8-mer AAGATCTT]
binding signal (PBM E-score (-0.5 to 0.5)) [10]: 0.457

AAACTGCA (double strand) [8-mer AAACTGCA]
binding signal (PBM E-score (-0.5 to 0.5)) [3]: 0.475

TCTTAAGA (double strand) [8-mer TCTTAAGA]
binding signal (PBM E-score (-0.5 to 0.5)) [10]: 0.482

AGTGCACT (double strand) [8-mer AGTGCACT]
binding signal (PBM E-score (-0.5 to 0.5)) [13]: 0.497
binding signal (PBM E-score (-0.5 to 0.5)) [12]: 0.456

AACATCTT (double strand) [8-mer AACATCTT]
binding signal (PBM E-score (-0.5 to 0.5)) [10]: 0.457

AACGTCTT (double strand) [8-mer AACGTCTT]
binding signal (PBM E-score (-0.5 to 0.5)) [10]: 0.48

GACTGCAA (double strand) [8-mer GACTGCAA]
binding signal (PBM E-score (-0.5 to 0.5)) [3]: 0.491

ATAAACAA (double strand) [8-mer ATAAACAA]
binding signal (PBM E-score (-0.5 to 0.5)) [14]: 0.485
binding signal (PBM E-score (-0.5 to 0.5)) [2]: 0.489

GGACTGCA (double strand) [8-mer GGACTGCA]
binding signal (PBM E-score (-0.5 to 0.5)) [3]: 0.476

ACTACAAA (double strand) [8-mer ACTACAAA]
binding signal (PBM E-score (-0.5 to 0.5)) [7]: 0.492
binding signal (PBM E-score (-0.5 to 0.5)) [8]: 0.491
binding signal (PBM E-score (-0.5 to 0.5)) [3]: 0.452
binding signal (PBM E-score (-0.5 to 0.5)) [9]: 0.493

AAAGTACA (double strand) [8-mer AAAGTACA]
binding signal (PBM E-score (-0.5 to 0.5)) [13]: 0.497
binding signal (PBM E-score (-0.5 to 0.5)) [12]: 0.482

ATGTTTAC (double strand) [8-mer ATGTTTAC]
binding signal (PBM E-score (-0.5 to 0.5)) [2]: 0.455

CTCCGCCC (double strand) [8-mer CTCCGCCC]
binding signal (PBM E-score (-0.5 to 0.5)) [1]: 0.451

TCAAGAAA (double strand) [8-mer TCAAGAAA]
binding signal (PBM E-score (-0.5 to 0.5)) [10]: 0.462

AGAGTACA (double strand) [8-mer AGAGTACA]
binding signal (PBM E-score (-0.5 to 0.5)) [12]: 0.48

GTTTATAA (double strand) [8-mer GTTTATAA]
binding signal (PBM E-score (-0.5 to 0.5)) [2]: 0.459

ATTGTTTA (double strand) [8-mer ATTGTTTA]
binding signal (PBM E-score (-0.5 to 0.5)) [2]: 0.467

GAACTACA (double strand) [8-mer GAACTACA]
binding signal (PBM E-score (-0.5 to 0.5)) [3]: 0.459

GAACTGCA (double strand) [8-mer GAACTGCA]
binding signal (PBM E-score (-0.5 to 0.5)) [3]: 0.494

AGACTGCA (double strand) [8-mer AGACTGCA]
binding signal (PBM E-score (-0.5 to 0.5)) [3]: 0.469

CGAAGAAA (double strand) [8-mer CGAAGAAA]
binding signal (PBM E-score (-0.5 to 0.5)) [10]: 0.453

AAGACATT (double strand) [8-mer AAGACATT]
binding signal (PBM E-score (-0.5 to 0.5)) [10]: 0.458

GTAAACAC (double strand) [8-mer GTAAACAC]
binding signal (PBM E-score (-0.5 to 0.5)) [2]: 0.452

ACCGCCCC (double strand) [8-mer ACCGCCCC]
binding signal (PBM E-score (-0.5 to 0.5)) [1]: 0.476

TGAAGAAA (double strand) [8-mer TGAAGAAA]
binding signal (PBM E-score (-0.5 to 0.5)) [10]: 0.453

AAAGAACG (double strand) [8-mer AAAGAACG]
binding signal (PBM E-score (-0.5 to 0.5)) [12]: 0.458

TATAAACA (double strand) [8-mer TATAAACA]
binding signal (PBM E-score (-0.5 to 0.5)) [2]: 0.483

AGGGGCGG (double strand) [8-mer AGGGGCGG]
binding signal (PBM E-score (-0.5 to 0.5)) [1]: 0.494

CGTCTTGA (double strand) [8-mer CGTCTTGA]
binding signal (PBM E-score (-0.5 to 0.5)) [10]: 0.454

CACGCCCC (double strand) [8-mer CACGCCCC]
binding signal (PBM E-score (-0.5 to 0.5)) [1]: 0.473

AGTACACT (double strand) [8-mer AGTACACT]
binding signal (PBM E-score (-0.5 to 0.5)) [12]: 0.454
